Data reported in patent publication US20200222478A1.

Assays:
Assay in all cases: UV peptide exchange + HLA class I ELISA
Conditions in all cases: remark: other sources report otherwise
HLA-A*03:01 (human) = target: HLA-A*03:01 (human)
HLA-B*07:02 (human) = target: HLA-B*07:02 (human)
HLA-A*01:01 (human) = target: HLA-A*01:01 (human)
HLA-A*02:01 (human) = target: HLA-A*02:01 (human)
HLA-A*24:02 (human) = target: HLA-A*24:02 (human)
HLA-B*08:01 (human) = target: HLA-B*08:01 (human)

| exchange rate vs Pos peptide (HLA-A*03:01 (human)) [%] | exchange rate vs Pos peptide (HLA-B*07:02 (human)) [%] | exchange rate vs Pos peptide (HLA-A*01:01 (human)) [%] | exchange rate vs Pos peptide (HLA-A*02:01 (human)) [%] | exchange rate vs Pos peptide (HLA-A*24:02 (human)) [%] | exchange rate vs Pos peptide (HLA-B*08:01 (human)) [%] | Binder |
| --- | --- | --- | --- | --- | --- | --- |
| 3.8 | 38.7 | 4.9 |  | 0.1 |  | RAVRRMNTF (here or on the partner: biotinylated heavy chain) [P17 9-mer peptide (MSMB-NOCA4 fusion)] |
| 51.1 | 6.7 | 2.5 | 7.9 | -0.1 | 2.4 | IVWWCPMSR (here or on the partner: biotinylated heavy chain) [P98 9-mer peptide (TP53 (R213D) frameshift)] |
| 3.5 | 8.7 |  | 89.2 | 0.5 | 2.6 | LLERNSFEV (here or on the partner: biotinylated heavy chain) [P73 9-mer peptide (TP53 (G266E))] |
| 2.4 | 5 | 1.1 | 64 | 0.2 | 3.1 | FLFLLLPLS (here or on the partner: biotinylated heavy chain) [P87 9-mer peptide (AR-Intron splice variant)] |
| 6.8 | 82.5 | 2.6 | 8.4 | 0.5 | 38 | RAKCKFSIL (here or on the partner: biotinylated heavy chain) [P56 9-mer peptide (SPOP(F102C))] |

The next lines start with the binder.

| Binder | exchange rate vs Pos peptide (HLA-A*03:01 (human)) [%] | exchange rate vs Pos peptide (HLA-B*07:02 (human)) [%] | exchange rate vs Pos peptide (HLA-A*01:01 (human)) [%] | exchange rate vs Pos peptide (HLA-A*02:01 (human)) [%] | exchange rate vs Pos peptide (HLA-A*24:02 (human)) [%] | exchange rate vs Pos peptide (HLA-B*08:01 (human)) [%] |
| --- | --- | --- | --- | --- | --- | --- |
| YQFTFDLLI (here or on the partner: biotinylated heavy chain) [P48 9-mer peptide (AR.p.H875Y)] | 4.4 | 12.8 | 4.3 | 99.3 | 0.1 |  |
| HVPKILSGK (here or on the partner: biotinylated heavy chain) [P58 9-mer peptide (AR (Q903H))] | 32.5 |  | 2.5 | 11.8 | 0.2 | 5.3 |
| QLIAMDSAI (here or on the partner: biotinylated heavy chain) [P22 9-mer peptide (SLC45A3-ELK4 fusion)] | 4.8 | 8.3 | 4.4 | 46.9 | 0 | 3.9 |
| IPVLTRWPL (here or on the partner: biotinylated heavy chain) [P19 9-mer peptide (TMEM222-LOC644961 fusion)] | 4.1 | 91.3 | 5.2 | 8.2 | 0.1 | 14.5 |
| YCMAAPMGL (here or on the partner: biotinylated heavy chain) [P76 9-mer peptide (AR-V3 splice variant)] | 6 | 91.5 | 0.1 | 85.9 | -0.5 |  |
| LMAQRLLLR (here or on the partner: biotinylated heavy chain) [P97 9-mer peptide (FOXRED2-TXN2 fusion)] | 39 | 7 | 2.5 | 4.6 | 0.1 | 2.7 |
| CPMSRLRLA (here or on the partner: biotinylated heavy chain) [P46 9-mer peptide (TP53 (R213D) frameshift)] | 10.3 | 64.8 | 2.4 | 14.4 | -0.4 | 14.5 |
| RVGNCKHLK (here or on the partner: biotinylated heavy chain) [P82 9-mer peptide (AR-V7 splice variant)] | 58.1 | 12.9 | 1.5 | 6.3 | -0.1 | 1.4 |
| CYLGRQKRF (here or on the partner: biotinylated heavy chain) [P61 9-mer peptide (FOXA1.p.R261G)] |  |  | 1.7 | 5.8 | 90.3 | 3.6 |
| YLRRQKRLK (here or on the partner: biotinylated heavy chain) [P60 9-mer peptide (FOXA1.p.F266L)] | 36.6 | 6.1 | 3.1 | 7.9 | 0.9 | 10.2 |
